Target: T1, neuropilin-1 (NRP1) on HEK293 cells overexpressing NRP1 (UniProt O14786 22-923, limits assumed)
T1 construct: whole, on cells
Assay: flow cytometry, HEK293-NRP1 vs HEK293

Row | Binder | 100 nM FACS (MFI Ratio)
1 | NRP1-14 (VHH) VHH: EVQLVESGGGLVQPGGSLRLSCAASGFTFRNFGMGWFRQAPGKEREFVSAISPGGVERYADSVKGRFTISADNSKNTAYLQMNSLKPEDTAVYYCATVGGYDYGYYYGMDVWGQGTLVTVSS | 15.4
2 | NRP1-211 (antibody, IgG2, V domains shown) VH: EVQLLESGGGLVQPGGSLRLYCAASGFTFGSYGMSWVRQAPGKGLEWVSSISGSGGSTYYTDSVKGRFTISRDNSKNTLYLQMNSLRAEDTAVYYCVRALAGRRDHWGQGTLVTVSS VL: DIQMTQSPSSLSASVGDRVTITCRASQTISNYVNWYQQKPGKAPKLLIYAASSLHAGVPSRFSGSGSGTDFTLTISSLQPEDFATYYCQQGYSTPLTFGGGTKVEIK | 3.8
3 | NRP1-216 (antibody, IgG2, V domains shown) VH: EVQLLESGGGLVQPGGSLRLSCAASGFSFRNYAMSWVRQAPGKGLEWVSTVSGSGSSTYYADSVKGRFTISRDNSKNTLYLQMNSLRAEDTAVYYCARGRRGMPAPDTVRKMAKSHLYFDSWGQGTLVTVSS VL: DIQMTQSPSSLSASVGDRVTITCRASQSISNYLSWYQQKPGKAPKLLIYAASSLSGGVPSRFSGSGSGTDFTLTISSLQPEDFATYYCQQTYTTPYTFGGGTKVEIK | 3.6
4 | NRP1-271 (antibody, IgG2, V domains shown) VH: EVQLLESGGGLVQPGGSLRLSCAASGFTFTTYGMSWVRQAPGKGLEWVSAISGSGGTTYYADSVKGRFTISRDNSKNTLYLQMNSLRAEDTAVYYCARVGPGRSIAARQGFKRRNNWFDPWGQGTLVTVSS VL: DIQMTQSPSSLSASVGDRVTITCRARQSISTYLNWYQQKPGKAPKLLIYSASTLESGVPSRFSGSGSGTDFTLTISSLQPEDFATYYCQQSYRTPWTFGGGTKVEIK | 0.8
5 | NRP1-214 (antibody, IgG2, V domains shown) VH: EVQLLESGGGLVQPGGSLRLSCAASGFTFTTYGMSWVRQAPGKGLEWVSAISGSGGTTYYADSVKGRFTISRDNSKNTLYLQMNSLRAEDTAVYYCARVGPGRSIAARQGFKRRNNWFDPWGQGTLVTVSS VL: DIQMTQSPSSLSASVGDRVTITCRASQSVSTSLNWYQQKPGKAPKLLIYGASRLQTGVPSRFSGSGSGTDFTLTISSLQPEDFATYYCQQTYSSPRTFGGGTKVEIK | 1
6 | NRP1-137 (antibody, IgG2, V domains shown) VH: EVQLLESGGGLVQPGGSLRLSCAASGFTFSRYAMNWVRQAPGKGLEWVSTISSGGGYTYYPDSVKGRFTISRDNSKNTLYLQMNSLRAEDTAVYYCARSYGGGFDYWGQGTLVTVSS VL: DIQMTQSPSSLSASVGDRVTITCQASQSISSYLAWYQQKPGKAPKLLIYPKHNRPPGVPSRFSGSGSGTDFTLTISSLQPEDFATYYCQQSYKSPLTFGQGTKVEIK | 1200

Continued, values first:

Row | 100 nM FACS (MFI Ratio) | Binder
7 | 6.2 | NRP1-273 (antibody, IgG2, V domains shown) VH: EVQLLESGGGLVQPGGSLRLYCAASGFTFGSYGMSWVRQAPGKGLEWVSSISGSGGSTYYTDSVKGRFTISRDNSKNTLYLQMNSLRAEDTAVYYCVRALAGRRDHWGQGTLVTVSS VL: DIQMTQSPSSLSASVGDRVTITCRASRRISTYLNWYQQKPGKAPKLLIYAASSLHAGVPSRFSGSGSGTDFTLTISSLQPEDFATYYCQQGYSTPLTFGGGTKVEIK
8 | 2.8 | NRP1-217 (antibody, IgG2, V domains shown) VH: EVQLLESGGGLVQPGGSLRLSCAASGFTFGRYAMSWVRQAPGKGLEWVSSISGSGGSTYYADSVKGRFTISRDNSKNTLYLQMNSLRAEDTAVYYCARQRIKPNTPRESFFRRAYSYYGMDVWGQGTLVTVSS VL: DIQMTQSPSSLSASVGDRVTITCRTSQRISTSLNWYQQKPGKAPKLLIYGASNLQSGAPSRFSGSGSGTDFTLTISSLQPEDFATYYCQQSYFTPITFGGGTKVEIK
9 | 0.6 | NRP1-280 (antibody, IgG2, V domains shown) VH: EVQLLESGGGLVQPGGSLRLSCAASGFTFTTYGMSWVRQAPGKGLEWVSAISGSGGTTYYADSVKGRFTISRDNSKNTLYLQMNSLRAEDTAVYYCARVGPGRSIAARQGFKRRNNWFDPWGQGTLVTVSS VL: DIQMTQSPSSLSASVGDRVTITCRASQTISNYVNWYQQKPGKAPKLLIYAASSLHAGVPSRFSGSGSGTDFTLTISSLQPEDFATYYCQQGYSTPLTFGGGTKVEIK
